This is an account of results in patent US20250066455A1 (published 2025).

Experiment [1] has as its target T1, SARS-CoV-2 spike receptor-binding domain (RBD) (SARS-CoV-2, UniProt P0DTC2 319-541). Nature of the experiment: BLI. Background: In BLI a coated tip is dipped into the sample, and binding shifts an interference pattern.
Experiment [2] addresses T1, SARS-CoV-2 spike receptor-binding …. Nature of the experiment: ELISA. (An ELISA detects its analyte on a solid surface through an enzyme-linked reagent.)
The next experiment has as its target SARS-CoV-2 WT RBD (SARS-CoV-2, UniProt P0DTC2 319-541). The experiment in a line: BLI.
Another experiment concerns the target RBD (SARS-CoV-2, UniProt P0DTC2 319-541). Nature of the experiment: ELISA.

B1: PDI 42 (antibody, V domains shown)
VH: EVQLVESGGGLVQPGGSLRLSCAASGLTVSSNYMSWVRQAPGKGLEWVSVFYPGGSTYNADSVKGRFTISRDNSKNTLYLQMNSLRAEDTAVYYCARDAVYYGMDVWGQGTTVTVSS
VL: not shown
As usually defined, the Kd is the free concentration of one partner at which half of the binding sites on the other are occupied at equilibrium, for simple one-to-one binding. Lower therefore signals a tighter complex. Usually IC50 stands for the concentration needed to halve the response being measured. Regarding B1, the Kd in experiment [1] turned out to be 1.1 nM. Besides, the IC50 in experiment [2] is 0.31 µg/mL.

B2: REGN10987 (antibody, V domains shown)
VH: QVQLVESGGGVVQPGRSLRLSCAASGFTFSNYAMYWVRQAPGKGLEWVAVISYDGSNKYYADSVKGRFTISRDNSKNTLYLQMNSLRTEDTAVYYCASGSDYGDYLLVYWGQGTLVTVSS
VL: QSALTQPASVSGSPGQSITISCTGTSSDVGGYNYVSWYQQHPGKAPKLMIYDVSKRPSGVSNRFSGSKSGNTASLTISGLQSEDEADYYCNSLTSISTWVFGGGTKLTVLR
Take B2: the affinity with SARS-CoV-2 WT RBD, expressed as Kd, was 17.6 nM. This molecule registered an IC50 in the experiment with RBD of 0.298 µg/mL.

B3: PDI 96 (antibody, V domains shown)
VH: LVQLVQSGAEVKKPGASVKISCKASGYTFTSYYMHWVRQAPGQGLEWMGIINPSGGGTSYAQKFQGRVTMTRDTSTSTVYMELTSLRSDDTAVYYCAKDRVTIFWGNGMDVWGQGTTVTVSS
VL: not shown
The molecule B3 came in with a Kd in experiment [1] of 2.6 nM. The molecule also gave an IC50 in experiment [2] of 0.346 µg/mL.

B4: REGN10933 (antibody, V domains shown)
VH: QVQLVESGGGLVKPGGSLRLSCAASGFTFSDYYMSWIRQAPGKGLEWVSYITYSGSTIYYADSVKGRFTISRDNAKSSLYLQMNSLRAEDTAVYYCARDRGTTMVPFDYWGQGTLVTVSS
VL: DIQMTQSPSSLSASVGDRVTITCQASQDITNYLNWYQQKPGKAPKLLIYAASNLETGVPSRFSGSGSGTDFTFTISGLQPEDIATYYCQQYDNLPLTFGGGTKVEIKR
As to B4, the Kd with SARS-CoV-2 WT RBD is 3.5 nM. Besides, in the experiment with RBD, the IC50 was found to be 0.293 µg/mL.

B5: PDI 231 (antibody, V domains shown)
VH: EVQLVESGGGLIQPGGSLRLSCVASGLTVSSNYMNWVRQTPGKGLEWVSVIYSGGSTFYADSVKGRFTISRDNSKNTLFLQMNSLRAEDTAVYYCARVGGYCSSANCVSDVWGKGTTVTVSS
VL: DIQMTQSPSSLSASVGDRVTITCQASQDIRNYLNWYQQKPGKAPKIMIYDASILETGVPSRFSGSGSGTDFTFTISSLQPEDIATYYCQQYDNLPITFGQGTQLEIK
On to B5, for which the Kd in experiment [1] was 0.38 nM. Besides, in experiment [2], the IC50 was 0.328 µg/mL.
